{
  "source": "patent US20210315969A1",
  "about": "“GLYCOPROTEINS HAVING LIPID MOBILIZING PROPERTIES AND THERAPEUTIC USES THEREOF” (Aston University, priority 2008, published 2021)",
  "molecules": {"B1": {"name": "Zinc-α2-glycoprotein (protein, listed as Homo sapiens)", "chain": "QENQDGRYSLTYIYTGLSKHVEDVPAFQALGSLNDLQFFRYNSKDRKSQPMGLWRQVEGMEDWKEDSQLQKAREDMETLKDIVEYYNDSNGSHVLQGRFGCEIENNRSSGAFWKYYYDGKDYIEFNKEIPAWVPFDPAAQITKQKWEAEPVYVQRAKAYLEEECPATLRKYLKYSKNILDRQDPPSVVVTSHQAPGEKKKLKCLAYDFYPGKIDVHWTRAGQVQEPELRGDVLHNGNGTYQSWVVVAVPPQDTAPYSCHVQHSSLAQPLVVPWEAS", "notes": "recombinant human Zinc-α2-glycoprotein, lipid mobilizing factor, expressed in HEK293F cells"}},
  "type_in_all_cases": "in vivo",
  "key": {"[1]": {"assay": "Interval administration / pilot scheduling study of ZAG in ob/ob mice", "protocol": "While not wanting to be limited by theory, it may be that the subjects are receiving too much ZAG or that there is receptor desensitization as is seen with TNF. A pilot study was performed with 2 mice in each group to determine optimal scheduling of ZAG delivery."}, "[2]": {"assay": "21 day study of ZAG in ob/ob mice", "protocol": "FIG. 7A is a graphical diagram showing weight loss of the ob/ob mice during the 21 day study. ZAG was injected at days 1, 4, 5, 8, 13, 16, 18, and 19; PBS was injected at the same time points.\n(§1) Animals—Mice—Homozygous obese (ob/ob) mice from the colony maintained at Aston University were used in the present study. The origin and characteristics of Aston ob/ob mice have been previously described. Male mice (20-21 weeks old, weight 90-100 g) were grouped into three per cage in an air conditioned room at 22 ±2° C. with a 12 h-light:12 h-dark cycle and fed a rat and mouse breeding diet (Special Diet Services, Witham, UK) and tap water ad libitum. They were administered ZAG (35 μg) in PBS (100 μl) b.d. by i.v. administration and body weight and food and water intake were monitored daily. Control mice received PBS alone. Body temperature was measured daily by the use of a rectal thermometer (RS Components, Northants, UK). All animal experiments were carried out in accordance with the U.K. Animals (Scientific Procedures) Act 1986.\n(§2) Serum Metabolite Determinations—Non-esterified fatty acids (NEFA) were determined using a Wako-ASC-ACOD kit (Wako Chemical GmbH, Neuss, Germany). Triglycerides were determined using a Triglyceride kit (Sigma Chemical Co., Poole, United Kingdom) and 3-hydroxybutyrate by a quantitative enzymatic determination kit (Sigma). Glucose was measured using a glucose analyser (Beckman, Irvine, Calif.) and glycerol was determined enzymatically using the method of Wieland as described in “Methods of Enzymatic Analysis” (Ed, Bergmeyer, H. U.) Vol. 3, pp1404-1409, published by Academic Press, London (1974)."}, "[3]": {"assay": "ZAG i.v. administration to ob/ob mice, 5 day study (body weight, temperature, plasma metabolites)", "protocol": "as §1, §2"}, "adipocytes": {"test_system": "adipocytes", "assay": "Lipolytic responsiveness of adipocytes from ZAG treated ob/ob mice to isoprenaline or BRL37344", "source_text": "FIG. 5K is a graphical diagram showing the response of adipocytes from epididymal (ep), subcutaneous (sc) and visceral (vis) deposits from ob/ob mice treated with either PBS or ZAG for 5 days to the lipolytic effect of BRI,37344, Differences from PBS controls are indicated as *** p<0.01, while differences in the presence of PD98059 is shown as # p<0.001.\nFIG. 9 is a graphical diagram showing glycerol release stimulated by isoprenaline (iso) isolated adipocytes which have been in culture up to 5 days from ob mice treated with and without ZAG.\nLipolytic Assay—Samples to be assayed were incubated with 10^5 to 2×10^5 adipocytes for 2 h in 1 ml Krebs-Ringer bicarbonate buffer, pH 7.2. The concentration of glycerol released was determined enzymatically by the method of Wieland (Wieland, O. Glycerol UV method. In Methods of Enzymatic Analysis (ed. Bergmeyer, H. U.) (Academic Press, London, UK, pp 1404-1409, 1974)). Control samples containing adipocytes alone were analysed to determine the spontaneous glycerol release. Activity was expressed as nmol glycerol released/10^5 adipocytes/2 h.\nAdipocytes were removed from mice after 5 days of ZAG and their responsiveness to isoprenaline (iso) was measured after culture in the absence of ZAG (FIG. 9), The responsiveness to iso is higher in ZAG treated mice and this continues for a further 4 days (Which was when expression of ZAG and HSL were increased) and then falls on day 5 (when expression was not increased) down to values of PBS control.\nThe data shown in Attachment 1 is from a 5 day study where ZAG was administered at 35 μg per day i.v. on a daily basis for 5 days. At the end of the experiment tissues were removed and blotted, or functional assays were carried out with isolated adipocytes. […] When ep adipocytes were prepared and maintained in tissue culture (RPMI 1640 ±10% FCS) ZAG expression was maintained for a further 3 days, even though no ZAG was added to the culture medium (FIG. 6B). […] In fact, as discussed above, too much ZAG is more likely to lead to resistance rather than an increased response."}, "[4]": {"test_system": "protein expression in adipocytes, BAT and gastrocnemius muscle", "assay": "Western blot analysis of tissues of ob/ob mice treated with ZAG", "protocol": "Western Blot Analysis—Freshly excised gastrocnemius muscles were washed in PBS and lysed PHOSPHOSAFE™ Extraction Reagent for 5 min at room temperature followed by sonication at 4° C. The lysate was cleared by centrifugation at 18,000 g for 5 min at 4° C. and samples of cytosolic protein (5 μg) were resolved on 12% sodium dodecyl suflate-polyacrylamide gel electrophoresis at 180V for approximately 1 h. This was followed by transference to 0.45 μm nitrocellulose membranes, which were then blocked with 5% Marvel in Tris-buffered saline, pH 7.5, at 4° C. overnight. Both primary and secondary antibodies were used at a dilution of 1:1000 except anti-myosin (1:250). Incubation was for lh at room temperature, and development was by FCL. Blots were scanned by a densitometer to quantify differences."}, "[5]": {"assay": "Insulin tolerance test in ob/ob mice administered ZAG for 3 days", "protocol": "An insulin tolerance test was also carried out in ob/ob mice administered. ZAG for 3 days (FIG. 23). Animals were administered two doses of insulin (10 and 20 U/kg) by i.p. injection and blood glucose was measured over the next 60 min. […] The glucose disappearance curve for 20 U/kg +PBS was almost identical to 10 U/kg +ZAG, so at this dose level ZAG is reducing the requirement for insulin by 50%, but this can be overcome by giving more insulin."}, "[6]": {"settings": "ob/ob mice treated for 120 h, wet weight"}},
  "data": [
    {"molecule": "B1", "values": [
      {"measurement": "weight loss on long-term daily administration", "setting": "[1]", "value": "cessation of weight loss"},
      {"measurement": "weight loss with break of 3-4 days followed by re-infusion", "setting": "[1]", "value": "continued weight loss"},
      {"measurement": "urinary glucose excretion", "setting": "[2]; first 5 days and 21 day study", "value": "progressive decrease"},
      {"measurement": "peak body temperature", "setting": "[2]; just before maximum weight loss", "value": 38.1, "unit": "°C"},
      {"measurement": "Start weight", "setting": "[2]; ob/ob mice, 21 day study, before treatment, in g", "value": "93.1 ± 1.9"},
      {"measurement": "BAT", "setting": "[2]; ob/ob mice, Day 21 (Table 3)", "value": "0.41 ± 0.35", "unit": "g"},
      {"measurement": "Gastrocnemius", "setting": "[2]; ob/ob mice, Day 21 (Table 3)", "value": "0.39 ± 0.12", "unit": "g"},
      {"measurement": "Soleus", "setting": "[2]; ob/ob mice, Day 21 (Table 3)", "value": "0.18 ± 0.07", "unit": "g"},
      {"measurement": "BAT", "setting": "[3]; ob/ob mice treated for 120 h", "value": "0.73 ± 0.12", "unit": "p < 0.01 g"},
      {"measurement": "NEFA (plasma)", "setting": "[3]; ob/ob mice treated for 120 h", "value": "0.73 ± 0.05", "unit": "p < 0.001 mEq/L"},
      {"measurement": "TG (plasma)", "setting": "[3]; ob/ob mice treated for 120 h", "value": "0.9 ± 0.1", "unit": "p < 0.05 mmol/L"},
      {"measurement": "Gastrocncinius", "setting": "[3]; [6]", "value": "1.12 ± 0.14", "unit": "p < 0.01 g"},
      {"measurement": "Soleus", "setting": "[3]; [6]", "value": "0.80 ± 0.09", "unit": "p < 0.01 g"},
      {"measurement": "rise of body temperature", "setting": "[3]; ob/ob mice, after 4 days of ZAG administration", "value": 0.4, "unit": "°C"},
      {"measurement": "weight difference between the groups", "setting": "[3]; ob/ob mice, after 5 days, ZAG vs PBS", "value": 3.5, "unit": "g"},
      {"measurement": "responsiveness of adipocytes to isoprenaline", "setting": "adipocytes; adipocytes from mice after 5 days ZAG, cultured in absence of ZAG", "value": "higher"},
      {"measurement": "lipolytic response of epididymal adipocytes to the β3 agonist BRL37344", "setting": "adipocytes; adipocytes from mice treated 5 days", "value": "increased lipolytic response"},
      {"measurement": "time the increased response to isoprenaline was maintained in tissue culture", "setting": "adipocytes; isoprenaline 10 μM, absence of ZAG", "value": 4, "unit": "days"},
      {"measurement": "expression of HSL in epididymal adipocytes", "setting": "[4]; 5 days ZAG", "value": "increased expression of HSL"},
      {"measurement": "expression of HSL in subcutaneous or visceral adipocytes", "setting": "[4]; 5 days ZAG", "value": "no increase"},
      {"measurement": "expression of UCP1 and UCP3 in BAT and UCP3 in skeletal muscle", "setting": "[4]; 5 days ZAG", "value": "increased the expression"},
      {"measurement": "expression of pERK", "setting": "[4]; 5 days ZAG, ep, sc, vis adipose tissue", "value": "increase in expression of pERK only in ep adipose tissue"},
      {"measurement": "phospholipase A2 (PLA2) and p38 mitogen activated protein kinase", "setting": "[4]; gastrocnemius muscle", "value": "attenuated"},
      {"measurement": "time ZAG expression was maintained in cultured ep adipocytes", "setting": "[4]; no ZAG added to culture medium", "value": 3, "unit": "days"},
      {"measurement": "expression of HSL and ATGL in epididymal adipose tissue", "setting": "[4]; ob/ob mice", "value": "increases the expression"},
      {"measurement": "actin levels", "setting": "[4]; skeletal muscle", "value": "did not change"},
      {"measurement": "insulin tolerance test, blood glucose response", "setting": "[5]; insulin 10 U/kg i.p., vs PBS", "value": "increased sensitivity to insulin"},
      {"measurement": "insulin tolerance test, difference ZAG versus PBS", "setting": "[5]; insulin 20 U/kg i.p.", "value": "difference disappeared"}
    ]}
  ]
}
